According to patent publication US20090232804A1 (GLENMARK PHARMACEUTICALS S A, published 2009):
Residue numbers refer to the chain shown, from its start. “And” between values parts separate entries of the source, which are not always exact repeats. Equal entries are not always repeated.

B1: humanized NMC-4 variant H2, L4 (IgG1) (antibody, V domains shown)
VH: QVQLQESGPGLVKPSETLSLTCTVSGFSLTDYGVDWIRQPPGKGLEWIGMIWGDGSTDYNSALKSRLTISKDNSKNQVSLKLSSVTAADTAVYYCVRDPADYGNYDYALDYWGQGTSLTVSS
VL: DIQMTQSPSSLSASVGDRVTITCSASQDINKYLNWYQQKPGKAPKLLIFYTSSLHSGVPSRFSGSGSGTDYTLTISSLQPEDIATYYCQQYEKLPWTFGQGTKVEIK
B2: humanized NMC-4 variant H2, L7 (IgG1) (antibody, V domains shown)
VH: B1 VH
VL: B1 VL with P44V, Y71F
B3: humanized NMC-4 variant H9, L8 (IgG1) (antibody, V domains shown)
VH: B1 VH with L67V, K71V, N73T, V78F, V96A, S117L, L118V
VL: B1 VL with F49Y, Y71F
B4: humanized NMC-4 variant H12, L9 (IgG1) (antibody, V domains shown)
VH: B1 VH with F27G, L29I, T30S, L67V, K71V, N73T, V78F, V96A, S117L, L118V
VL: B1 VL with F49Y, Y71F, I83F
B5: humanized NMC-4 variant H4, L5 (IgG1) (antibody, V domains shown)
VH: B1 VH with V96A
VL: B1 VL with P44V
B6: humanized NMC-4 variant H14, L9 (IgG1) (antibody, V domains shown)
VH: QVQLQESGPGLVKPSETLSLTCTVSGGSISDYGWDWIRQPPGKGLEWIGMIWGDGSTDYNPSLKSRVTISVDTSKNQFSLKLSSVTAADTAVYYCARDPADYGNYDYALDYWGQGTLVTVSS
VL: B1 VL with F49Y, Y71F, I83F
B7: humanized NMC-4 variant H13, L9 (IgG1) (antibody, V domains shown)
VH: B6 VH with P61S, S62A
VL: B1 VL with F49Y, Y71F, I83F
B8: humanized NMC-4 variant H2, L6 (IgG1) (antibody, V domains shown)
VH: B1 VH
VL: B1 VL with P44V, F49Y
B9: humanized NMC-4 variant H7, L5 (IgG1) (antibody, V domains shown)
VH: B1 VH with N73T
VL: B1 VL with P44V
B10: humanized NMC-4 variant H5, L5 (IgG1) (antibody, V domains shown)
VH: B1 VH with L67V
VL: B1 VL with P44V
B11: humanized NMC-4 variant H9, L7 (IgG1) (antibody, V domains shown)
VH: B6 VH with G27F, I29L, S30T, W34V, P61S, S62A
VL: B1 VL with P44V, Y71F
B12: humanized NMC-4 variant H14-L10, IgG4 (antibody, V domains shown)
VH: B6 VH
VL: B1 VL with S24Q, N30S, K31N, F49Y, Y71F, I83F
B13: humanized NMC-4 variant H9L9 IgG4 (antibody, V domains shown)
VH: B6 VH with G27F, I29L, S30T, W34V, P61S, S62A
VL: B1 VL with F49Y, Y71F, I83F
B14: humanized NMC-4 variant H6, L5 (IgG1) (antibody, V domains shown)
VH: B1 VH with K71V
VL: B1 VL with P44V
B15: humanized NMC-4 variant H9, L6 (IgG1) (antibody, V domains shown)
VH: B6 VH with G27F, I29L, S30T, W34V, P61S, S62A
VL: B1 VL with P44V, F49Y
B16: humanized NMC-4 variant H9, L4 (IgG1) (antibody, V domains shown)
VH: B6 VH with G27F, I29L, S30T, W34V, P61S, S62A
VL: B1 VL
B17: humanized NMC-4 variant H9, L5 (IgG1) (antibody, V domains shown)
VH: B6 VH with G27F, I29L, S30T, W34V, P61S, S62A
VL: B1 VL with P44V
B18: humanized NMC-4 variant H2, L5 (IgG1) (antibody, V domains shown)
VH: B1 VH
VL: B1 VL with P44V

What was measured:
Test in all cases: cell-based or functional assay
[1] = molecular target: T1, purified human von Willebrand factor (vWF) (human, UniProt P04275 764-2813)
[2] = molecular target: T1, purified human von Willebrand factor …; remark: listed apart in the source
[3] = molecular target: T1, purified human von Willebrand factor …; remark: listed apart in the source

Row | Binder | EC50 [1] [nM] | also measured
1 | B1 | 0.14 | 
2 | B2 | 0.15 | 
3 | B3 | 0.08 | 
4 | B4 |  | EC50 (nM), platelet agglutination assay [2]: 0.29 nM
5 | B5 | 0.15 | 
6 | B6 |  | EC50 (nM), platelet agglutination assay [2]: 0.13 nM
7 | B7 |  | EC50 (nM), platelet agglutination assay [2]: 0.16 nM
8 | B8 | 0.14 | 
9 | B9 | 0.16 | 
10 | B10 | 0.18 | 
11 | B11 | 0.11 | 
12 | B12 |  | Platelet agglutination EC50, single experiment [3]: 2.3 nM and 2 nM; Platelet agglutination EC50 mean value (from 2 independent expts.) [3]: 2.15 nM
13 | B13 |  | Platelet agglutination EC50, single experiment [3]: 1.3 nM and 1.5 nM; Platelet agglutination EC50 mean value (from 2 independent expts.) [3]: 1.4 nM
14 | B14 | 0.18 | 
15 | B15 | 0.13 | 
16 | B16 | 0.11 | 
17 | B17 | 0.14 | 
18 | B18 | 0.13 | 
